Assay results from patent US20210115103A1.

Molecular target: AM receptor expressed in a cultured cell line (HEK293 cell line)
Test: cell-based or functional assay

Row | Substance | Relative activity (%) (vs. hAM), intracellular cAMP, compound at 10^-6 M
1 | amidated compound of Example 1: (IgG1 Fc Region)+(Linker S)+(AM-Gly), amidated (Fc fusion) | 27%
2 | amidated compound of Example 2: (IgG1 Fc Region)+(Linker K)+(AM-Gly), amidated (Fc fusion) | 11%
3 | amidated compound of Example 3: (IgG4 Fc Region)+(Linker S)+(AM-Gly), amidated (Fc fusion) | 27%
4 | amidated compound of Example 4: (IgG4 Fc Region)+(Linker K)+(AM-Gly), amidated (Fc fusion) | 49%
5 | amidated compound of Example 5: (IgG1 Fc Region)+(Linker S)+(AM (6-52)-Gly), amidated (Fc fusion) | 88%
6 | amidated compound of Example 6: (IgG1 Fc Region)+(Linker K)+(AM (6-52)-Gly), amidated (Fc fusion) | 70%
7 | amidated compound of Example 7: (IgG1 Fc Region)+(Linker S)+(AM (11-52)-Gly), amidated (Fc fusion) | 68%
8 | amidated compound of Example 8: (IgG1 Fc Region)+(Linker K)+(AM (11-52)-Gly), amidated (Fc fusion) | 48%
9 | amidated compound of Example 9: (IgG4 Fc Region)+(Linker S)+(AM (6-52)-Gly), amidated (Fc fusion) | 54%
10 | amidated compound of Example 10: (IgG4 Fc Region)+(Linker K)+(AM (6-52)-Gly), amidated (Fc fusion) | 39%
11 | amidated compound of Example 11: (IgG4 Fc Region)+(Linker S)+(AM (11-52)-Gly), amidated (Fc fusion) | 36%
12 | amidated compound of Example 12: (IgG4 Fc Region)+(Linker K)+(AM (11-52)-Gly), amidated (Fc fusion) | 48%
